Data published in patent US20190352664A1, “COMPOSITIONS AND METHODS FOR CONTROLLING GENE EXPRESSION” (priority 2017, published 2019).

B1: ZIK3: R-motif-dependent gene; 5′ leader sequence tested in dual luciferase reporter (nucleic acid, listed as Arabidopsis thaliana)
DNA: ACTTGTTTCCTTATATATTCTTCTCCCTTTAAACATTTAATCTTTTCCTCTTCTACCATCTCCACAAATTCCAAACATCTCTCTCTCTTTCTCTCTCACACACAAAATTGCAGAAGAAGAAGAGTC
modifications: listed as DNA, chemistry not fully specified
B2: BET10: R-motif-dependent gene; 5′ leader sequence tested in dual luciferase reporter (nucleic acid, listed as Arabidopsis thaliana)
DNA: TTAGGGACGGGACACTAGAGAAGGGAGGGCAGAGAGCGATTTTGTTCTCTCTCTACTTCTCGGTCGTCTTCTTCGTCTCCACTCTAGGGTTTTACTCTATCTTCTTCTTCATCATCATCTTCTACACCAATCTCTAGCGTTAATCTGTTTCTGCTGGAGAAGATTTACGCTTGTTCCTCGGTTCTCTTACTTCTGCTCCGGTTCGATCGCTTGCTAAGTGTTTCGAGTTGGTTCGCACTTCGGTGGGCGATATC
B3: AT5G49980.1_1: uORF of AT5G49980.1; peptide SEQ ID NO: 36 (nucleic acid)
DNA: ATGGAGACGAAGTGGAGAGAGAAAGCTCCCACTCTCTCACACCCCAAAGCTTCTTCTTCTTCTTCCTCTTCTTCCTCTTCCTCTTCTCTAATCTGA
modifications: listed as DNA, chemistry not fully specified
B4: AT5G15950.1_1: uORF of AT5G15950.1; peptide SEQ ID NO: 35 (nucleic acid)
DNA: ATGATGGAATCGAAAGCTGGTAATAAGAAGTCAAGCAGCAATAGTTCCTTATGTTACGAAGCACCCCTTGGTTACAGCATTGAAGACGTTCGTCCTTTCGGTGGAATCAAGAAATTCAAATCTTCTGTCTACTCCAACTGCGCTAAGAGGCCTTCCTGA
B5: AT5G61010.1_3: uORF of AT5G61010.1; peptide SEQ ID NO: 38 (nucleic acid)
DNA: ATGTCAACTGGATTAAGCTTAAGTAGTAATGGTTTTTACTATGTTCATGTGGGGATTTCTCTTCCTCTCTGTTTACTTCATTCCGAGATGACTTGA
modifications: listed as DNA, chemistry not fully specified
B6: AT1G12580.1: 5′ UTR of transcript; phosphoenolpyruvate carboxylase-related kinase 1 (nucleic acid)
DNA: GAGAGAGGACTGGGTCTGGTCTCTTCGCTGCAACCTATAGCTGTTGTTTGCTCTTCGACGGGATTCTCACTACTCTTTTGCCAAAAAAAAGAGATCGGAGGTTCCGAAGGTGAATGCAGCTTGCGATTTCATAGAAAAGAAGATTCGTTTGCTGGATTAGGCTTATTTGTGTATCATAGCTTTGAGGTTTTAACTGAGATTTATTGATAGTGGAACTTAGGTTTTCGAGAGGTGTGAACAGTTGGGTAT
B7: AT1G59700.1: 5′ UTR of transcript; glutathione S-transferase TAU16 (nucleic acid)
DNA: ATTGTGTGGTGACAAGCAACACATGATATGTCCGTTTAGAAACAGACAAAATAAGAAGAAGAAGAAAGAGTCGTGGAGGATTCTTCATTCTTCCTCATCCTCTTCTTCACCGATTCATTAGAAACCAAATTACAAAAAAAAACGTCTATACACAAAAAAACAA
B8: AT5G49980.1: 5′ UTR of transcript; auxin F-box protein 5 (nucleic acid)
DNA: AAAAAATAATCCCCAAATAATGGAGACGAAGTGGAGAGAGAAAGCTCCCACTCTCTCACACCCCAAAGCTTCTTCTTCTTCTTCCTCTTCTTCCTCTTCCTCTTCTCTAATCTGAATCCAAAGCCTCTCTCTTT
B9: AT5G15950.1: 5′ UTR of transcript; Adenosylmethionine decarboxylase family protein (nucleic acid)
DNA: ACAATATCACAAACTCGTTTGCTCTTTTCATCATTACTAAATCATAAGCGGCTCTCAAGTTCTTTAGGGTTTCGAGTTTTCTCAATCTCCTACCTGATTAAGGTTAATTTCTTATCTTGGATCAATAACAAGAGAATTATAACTCCGGATTGTAATCAATATTCCTCTACATAAAAAGCGTGAATGAGATTATGATGGAATCGAAAGCTGGTAATAAGAAGTCAAGCAGCAATAGTTCCTTATGTTACGAAGCACCCCTTGGTTACAGCATTGAAGACGTTCGTCCTTTCGGTGGAATCAAGAAATTCAAATCTTCTGTCTACTCCAACTGCGCTAAGAGGCCTTCCTGAGTACTAGCCAGTTCCCTCCATAGCTTTTCAATTACAACAATCTCCTTTTCTCAAAGCTCTGGTTCCCCAAATCCTCTCGTCTTTTGTTTGCCCTCACAACAACAACAACAACGCAGAG
B10: AT5G14930.1: 5′ UTR of transcript; senescence-associated gene 101 (nucleic acid)
DNA: TATGGACTCTCGTTCTCAGACATTTATTTCTCTCAGTCTTACAATATAAATTTTCATTCTTACCATCCATAATTTTGTATTGTCTTCTCCACAGATCTATTCCAGCTCACGCC
modifications: listed as DNA, chemistry not fully specified
B11: AT1G30330.1: 5′ UTR of transcript; auxin response factor 6 (nucleic acid)
DNA: CTTCTTCTTCTGATTCTCATTTCAAATAAGAGAGAGAGAGAGAGAAGTAAGTAAAACTTTAGCAGAGAGAAGAATAAACAAATAATTATAGCACCGTCACGTCGCCGCCGTATTTCGTTACCGGAAAAAAAAAATCATTCTTCAACATAAAAATAAAAACAGTCTCTTTCTTTCTATCTTTGTCTATCTTTGATTATTCTCTGTGTACCCATGTTCTGCAACAGTTGAGCAAGTGCATGCCCCATATCTCTCTGTTTCTCATTTCCCGATCTTTGCATTAATCATATACTTCGCCTGAGATCTCGATTAAGCCAGCTTATAGAAGAAGAAACGGCACCAGCTTCTGTCGTTTTAGTTAGCTCGAGATCTGTGTTTCTTTTTTTCTTGGCTTCTGAGCTTTTGGCGGTGGTGGGTTTTTCTGGAGAAACCCAAACGACTATCAAAGTTTTGTTTTTTACAATTTTAAGTGGGAGTTATGAGTGGGGTGGATTAAGTAAGTTACAAGTATGAAGGAGTTGAAGATTCGAAGAAGCGGTTTTGAAGTCGGCGAGACCAAGATTGCGAGCTTATTTGGCTGATGATTTATTTCAGGGAAGAAGAAATAAATCTGTTTTTTTTAGGGTTTTTAGATTTGGTTGGTGAATGGGTGGGAGGTGGAGGGAAACAGTTAAAAAAGTTATGCTTTTAGTGTCTCTTCTTCATAATTACATTTGGGCATCTTGAAATCTTTGGATCTTTGAAGAAACAAAGTTGTGTTTTTTTTTTTGTTCTTTGTTGTTTGCTTTTTAAGTTAGAATAAAAA
B12: AT5G61010.1: 5′ UTR of transcript; exocyst subunit exo70 family protein E2 (nucleic acid)
DNA: TCTTTCCCTTCTTCTTCCCCAATAATCTCGCTGAAACTCTCTTGCTCTTGCTTCTAAAAATCTGTTCTTTGAGACTTTGATCACACAGTTATCAAAATCATAATCTCTTCTTTCCTGGTTTTTTTTTTTTTCTTCTTCTTCTTCCCGTTTCACGGTACGTTTACTCTGTTCGATCACCGAGTGTATGATAAAATGTTTCTGTGAAATCAAATAACATATCACTTTCTAATAAACATCAAAATTTCTCCTTTTTTACAGAAACAAGAAGTTTTTTTGGGAAAGCCGTTGACTTGACTTTTTCTTTGGGGTGTTGTGTGGGAGCTTATAGTATGGTACCATAAGTGGGAGCTTATAGTTTGGGGTGTTGTGTGGGAGCTTATAGTATGAGGAAAAATGTTAGATTTGAAGAATGCTTCACTGATTTTTTACCATAAGTATGTCAACTGGATTAAGCTTAAGTAGTAATGGTTTTTACTATGTTCATGTGGGGATTTCTCTTCCTCTCTGTTTACTTCATTCCGAGATGACTTGAGATTTTTTCAAAGTATAGTTCTTGGAGTTAAGCTTACCTAGTAATCACTTTATATAACATCCCTTCGTTTACATTTGTGCTTTCACCTGGAAACACTTTAGACTTTTCTCTCTTCTGCCGTGTGTATTTAGTTGTCTAGTCAAATTTAAGTTGAGTTTAGGCTCTAGTCTTTGGTTTTGGTT
B13: AT5G57460.1: 5′ UTR of transcript (nucleic acid)
DNA: GAAGATCTCATTTCTCTTTCTCCTTTTCTTCTCCGACGATTCTTCTCAGTTCTCAGATCTGATCGATTTCTTCATCAGATGTTTCAATCTAACCATTGAGATTGAATAGTCACCATTAGTAGAAGCTTCGAGATCAATTTCGAATCGGGATC
B14: AT5G11790.1: 5′ UTR of transcript; N-MYC downregulated-like 2 (nucleic acid)
DNA: AAACACAAAAAAACGAAGATAGCCATCGTTTTGGTGAGAGAAGAGAGAAGAGAGAAGAAGAAGGCCATGGAAAGATAATACTCTGCTTTTTTTTTAGAAATATACAGAGGAAATAAAGAGAGAGAGAAGGAG

tested on: dual luciferase reporter; experiment: Dual luciferase assay (LUC/RLUC), transient expression; assay type: in vivo, N. benthamiana; conditions: 5′ leader sequence reporters

Molecule	TE when PAB2 was co-expressed
B1	lower TE
B2	lower TE

tested on: Arabidopsis; experiment: Ribo-seq and RNA-seq global translatome profiling (translational efficiency TE, mORF/uORF ribo-shift) upon elf18 treatment; assay type: in vivo; set-up: key to score (Ribo-shift): Up: ribo-shift up (i.e., increased mORF/uORF ratio); Down: ribo-shift down (i.e., decreased mORF/uORF ratio); conditions: shift of mORF/uORF ratio, elf18 vs Mock; per uORF

Molecule	score (Ribo-shift)
B3	Down
B4	Down
B5	Down

same assay, conditions: translational efficiency fold change, elf18 vs Mock; listed as shows 5′ UTR of the transcript

Molecule	score (TE change)
B6	TEup (448 had increased TEfc)
B7	TEdown (389 genes displayed decreased TEfc (|z|≥1.5))
B8	TEdown (389 genes displayed decreased TEfc (|z|≥1.5))
B9	TEdown (389 genes displayed decreased TEfc (|z|≥1.5))
B10	TEdown (389 genes displayed decreased TEfc (|z|≥1.5))
B11	TEdown (389 genes displayed decreased TEfc (|z|≥1.5))
B12	TEdown (389 genes displayed decreased TEfc (|z|≥1.5))
B13	TEup (448 had increased TEfc)
B14	TEdown (389 genes displayed decreased TEfc (|z|≥1.5))
